These results are taken from paper PMC6024848.

This experiment concerns the target AcLys, putative Acinetobacter baumannii AB 5075 prophage endolysin (Acinetobacter baumannii AB 5075 (prophage region)). Briefly: SEC; gel permeation (size-exclusion) chromatography of recombinant AcLys; Superose 12 HR10/30 in 50 mM Bis-Tris pH 6.0 named for the purification step; monomer and dimer fractions redistribute to the mixture 3-4 h after separation; more monomer in dilute solution; beta-mercaptoethanol does not affect dimerization; dimer to monomers.

By stoichiometry N is commonly meant a count of units in the complex or per binding partner.

With “AcLys, putative Acinetobacter baumannii AB 5075 prophage endolysin (enzyme)”, the stoichiometry N is 2.
